Experimental data from the supplement of paper PMC12042874.
± gives the uncertainty stated by the source.

assay: amyloid nucleation score (Sup35N fusion, yeast selection) (log enrichment); library NNK1; higher = more nucleation; inactive = no reads after selection
Summary of the method: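 Yeast lacking psi expressed peptides of 20 random codons fused to Sup35N, received 100 μM copper sulfate for 24 hours, and were then grown for 7 days at 30°C on medium lacking adenine and uracil. Illumina sequencing of input and output plasmid inserts provided the reads. Nucleation scores are DiMSum log enrichments of output over input, centred on the mode of non-aggregating sequences. Any sequence with under 100 input reads was excluded.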

Substance | amyloid nucleation score
TGDVLIYWFLVTHRMTAVQV | -0.096 ± 1
TGFGKKRATGWVAWGWEKLL | -0.468 ± 0.32
TGKAVTSGWKNIVSSITSQR | -0.434 ± 0.58
TGLPFYEEIMRTPHM | -0.766 ± 0.5
TGMWPFNRRCITIRTVSRNL | 0.467 ± 0.93
TGPVLTPKSCYFGHINSSCF | -0.009 ± 0.29
TGQLDV | 1.75 ± 0.58
TGRRIVGYDCLNRSCMYICV | -0.321 ± 0.25
TGRRLERGMRLRHGDAEYCC | 0.408 ± 0.28
TGSLG | -0.214 ± 0.31
TGTHDVVVAVGYR | -0.658 ± 0.54
TGYGVAVGPFVGGDF | -0.548 ± 1.5
TGYLERRVGYYRVRFRCERS | 0.022 ± 0.6
THCFFYHLGKFYMSKITLAS | -1.48 ± 2.7
THDAFF | 0.642 ± 0.48
THFMYIVELERGRLFGCSVR | 0.115 ± 1
THLGGRRFHFSELRTRSSRG | -0.023 ± 0.49
THQGWYSQNEHERRWIVHSF | 0.028 ± 0.58
THTYGGDG | -0.096 ± 0.74
TICNMSRWYDMKNYGEKMEV | 1.21 ± 0.6
TIDGSPIGMTTWPVPSFKFS | 0.742 ± 0.56
TIFGHVRGSYETKWMWAPWR | 2.98 ± 0.12
TIFLSF | -0.284 ± 0.27
TIHFRSDQHLSNIWRGFWQY | inactive
TILGVITKIVQTLLWMPWVA | -1.37 ± 0.9
TINWEPRFRVLHSPIYRGCY | inactive

Substance | amyloid nucleation score
TITDNSPNKTMIEVEEIRL | 0.109 ± 1.1
TITHGYLRLRYCVR | -0.292 ± 0.44
TKCHIQLYIALASVAGGSGF | 2.36 ± 0.29
TKGAFKVEKWSLSE | -0.115 ± 0.23
TKMCF | 0.105 ± 0.41
TKVFGRYLVVSGRFCIIEKK | -0.371 ± 0.38
TLCREEVETRLEATFCGCTN | 0.979 ± 0.84
TLDWLMSIFLILVSLAFNGL | -0.14 ± 0.33
TLDYVSYWGFTIWYAFMMVL | inactive
TLFRGMGYSWNVNKPDARKV | -0.403 ± 1.4
TLGLVDERHEDWIVLDYTLG | 0.422 ± 0.53
TLLMRSEGYLFYYAPSLSLV | -0.494 ± 0.44
TLLPARGGKKAR | 0.256 ± 0.49
TLMNHGRESLGWFD | -0.828 ± 0.66
TLPDKRILLSANIMPALVCN | 0.837 ± 0.31
TLQLN | -0.59 ± 0.65
TLRVIAVVDTFSRVYFR | 3.58 ± 0.12
TLSKVICVSPTVGMGLSSER | 0.616 ± 0.79
TLSSRSYC | 0.402 ± 0.33
TLVCNGQISTNLYYVKVGSS | 2.83 ± 0.12
TLVSAVSCCLNAC | -0.269 ± 0.26
TLWVNIG | -1.44 ± 2.7
TMFIFCWKTGVCLYCNLFTS | -0.591 ± 0.4
TMIDNPVYPSVFRVGHDTLV | 0.356 ± 0.3
TMRSNRLFRICFCLGKKYWL | -0.562 ± 0.33
TMWIAGVRNR | -0.367 ± 0.62

Substance | amyloid nucleation score
TNFCGVNPGRIIRLWEDRSW | -0.762 ± 0.45
TNFLKSFHV | -1.95 ± 1.8
TNGLCFI | -0.833 ± 0.74
TNGRR | -0.691 ± 1.2
TNTSWVFVVCIEHKEMDQAV | 5.9 ± 0.086
TNVNF | -1.24 ± 0.74
TPFRDKHGGVWVV | 0.505 ± 0.56
TPLFRGFIMLQPRLRCDKFA | 0.013 ± 0.31
TPNQSRFPNAVMTDTVTSFS | 0.214 ± 0.81
TQDIILDNSHDATHQHTRRA | -0.243 ± 1
TQEVLLFPGGCYNPFAFGWS | -0.647 ± 0.75
TQSSNPTLGGFQFHLWVNIF | -1.85 ± 0.95
TRCIAVFIGD | 2.52 ± 0.11
TRCRWLQ | 0.931 ± 0.93
TRFMMRVRIVSDCDTVNFAC | -0.379 ± 0.62
TRFNFMGLYNLRMVN | -0.777 ± 1.2
TRIVLLVVRRGTRKG | 0.889 ± 0.48
TRLHRSQYSLSQSYNRTRKM | 0.39 ± 1.2
TRMLLMIL | -0.921 ± 2.4
TRNVSVTAVMED | 0.938 ± 0.81
TRSLPFSIS | 0.109 ± 1.4
TRVASQDARTDP | -0.034 ± 0.49
TRWCEWRYRSPDRYASLTGF | -0.06 ± 0.43
TSAASLVERNLFLVSFFIIW | -0.376 ± 1.7
TSCVLFLYTPLTGSFLAGCP | -0.46 ± 0.59
TSELFYGTCGKGCPERVGGQ | -0.266 ± 1.6

Substance | amyloid nucleation score
TSFMEIVVLDAVGRQRRSSV | -0.106 ± 0.49
TSGFLPLKTKMF | 0.252 ± 0.8
TSGWCSRLQIIGLYLNVLVC | 5.47 ± 0.06
TSINWFRTVLYGVSLNYFWV | 0.345 ± 0.6
TSKSTLYSECVMWPVDPEPT | 0.273 ± 0.58
TSLPTAVWLKSARQWVEYGL | 1.18 ± 0.54
TSLRFLSVRS | 0.011 ± 0.49
TSMLDLN | -1.69 ± 1.8
TSMLSGSWSRPDPLTDSSGD | 0.517 ± 0.47
TSNSS | -1.07 ± 0.52
TSRGKDLSTRVGGGAPPGFR | -0.766 ± 1.6
TSSCLVYL | -0.413 ± 0.55
TSSTRILISTTELVRNYCYC | 1.37 ± 0.26
TSSVGMWGQWYSRWNSRKCN | -0.573 ± 1.7
TSTYWQVDEAV | -0.325 ± 0.52
TSYLLCMEQYYLKEISCRDS | 0.688 ± 0.38
TSYYRGFYKYAWNG | 0.21 ± 0.39
TTFFDLT | 0.713 ± 0.74
TTFFSGIYKKASLFYRHFVL | -0.812 ± 0.28
TTMILWQTQYDYLG | -0.247 ± 0.58
TTRFRNFKLRSH | inactive
TTVANTSAVFCEAVCKGMQK | 0.078 ± 0.99
TVFYMRPVGSGTGNLNLLQL | 0.906 ± 1
TVIGSSRGAPLIIKSGFIIE | 4.25 ± 0.056
TVMHSAMIYILVPVSGSGQV | 5 ± 0.064
TVMTRRSLWRTVGLNWVMLV | 1.53 ± 0.19

Substance | amyloid nucleation score
TVSDHPSFFCVYCADSSVGM | 7.439 ± 0.073
TVSLGEQFLFTIAVGYGDSD | inactive
TVTYRLYVPATVCFKILFRR | -0.625 ± 0.33
TVYYDSIRSMYGYGGGVASR | -0.344 ± 0.49
TWEFRYNFFYNVPRLQTYKI | -0.169 ± 0.42
TWPVLSDGQAGELRVRMGSA | 0.741 ± 0.88
TWSRAQM | inactive
TWTCDSVCCVRNKEVCGVYQ | 0.033 ± 0.23
TYERICGCMFCLTCSSDAF | -0.19 ± 0.71
TYGRASRALGDFRQITRVAS | -1.38 ± 1.7
TYLFSTVGVSGSSMSQVYIV | -0.387 ± 0.46
TYRFGCTLPLLRMCFIP | 0.435 ± 0.71
TYRKYLRVRTLDERHGSVYE | 0.147 ± 0.35
TYSPQLLYNYPLCLVFLSCL | 2.83 ± 0.15
TYTCVNPVGHFTGGNRGILW | 0.425 ± 1.1
TYTPRETTSTCSAYSFYMLK | 1.26 ± 0.15
TYTVGHYVAFWSRRVKSNES | 0.392 ± 0.67
TYVLTP | -0.454 ± 1.6
TYYVRCLGLLGLNPTFRSPR | 0.365 ± 0.36
VAFNICSENRLVNFR | -0.577 ± 0.4
VAKSRCYTQCGLGYLSRKLA | inactive
VALAIIRPY | -0.431 ± 0.27
VAQLRIKVCKDPGTWLQVHH | 1.48 ± 0.74
VATIQRISGIKQESAGSRTF | -0.07 ± 0.93
